Patent publication US20260176343A1 (UCL BUSINESS, published 2026)
Numbering of substitutions follows the chain as printed.

B1: AR_TCE-1 (bispecific antibody)
chain: QVQLVESGGGVVQPGRSLRLSCAASGFIFSEHNMAWVRQAPGKGLEWVATISDDGRNTYYRDSMRGRFTISRDNSKNTLYLQMNSLRAEDTAVYYCTSHRYNLFDSWGQGTMVTVSSGGGGSGGGGSGGGGSDIQMTQSPSSLSASVGDRVTITCKASQNIDRYLNWYQQKPGKAPKRLIYNTNKLQTGVPSRFSGSGSGTEFTLTISSLQPEDFATYYCLQYNSLPLTFGQGTKLEIKSGGGGSIEPDSESQGGGGSQVQLVQSGAEVKKPGSSVKVSCKASGYTFTRYTMHWVRQAPGQGLEWMGYINPSRGYTNYNQKFKDRVTITADKSTSTAYMELSSLRSEDTAVYYCARYYDDHYCLDYWGQGTMVTVSSVEGGSGGSGGSGGSGGVDDIQMTQSPSSLSASVGDRVTITCSASSSVSYMNWYQQKPGKAPKRLIYDTSKLASGVPSRFSGSGSGTEFTLTISSLQPEDFATYYCQQWSSNPFTFGQGTKVEIKHHHHHH
B2: AR_TCE-3 (bispecific antibody)
chain: B1 chain with E251L, S252E, Q253E
B3: NVG-111 (bispecific antibody)
chain: QVQLVESGGGVVQPGRSLRLSCAASGFIFSEHNMAWVRQAPGKGLEWVATISDDGRNTYYRDSMRGRFTISRDNSKNTLYLQMNSLRAEDTAVYYCTSHRYNLFDSWGQGTMVTVSSGGGGSGGGGSGGGGSDIQMTQSPSSLSASVGDRVTITCKASQNIDRYLNWYQQKPGKAPKRLIYNTNKLQTGVPSRFSGSGSGTEFTLTISSLQPEDFATYYCLQYNSLPLTFGQGTKLEIKSGSGGGGSQVQLVQSGAEVKKPGSSVKVSCKASGYTFTRYTMHWVRQAPGQGLEWMGYINPSRGYTNYNQKFKDRVTITADKSTSTAYMELSSLRSEDTAVYYCARYYDDHYCLDYWGQGTMVTVSSVEGGSGGSGGSGGSGGVDDIQMTQSPSSLSASVGDRVTITCSASSSVSYMNWYQQKPGKAPKRLIYDTSKLASGVPSRFSGSGSGTEFTLTISSLQPEDFATYYCQQWSSNPFTFGQGTKVEIKHHHHHH

Each binder was assayed against ROR1 on Jeko-1 cells (UniProt Q01973 30-937, limits assumed) (assay: cell-based or functional assay).

Point of comparison: B3, “maximum target cell death, long-term (120 h) killing assay, 1 µg/mL, 1:10 effector to target ratio” value 60.5%. Against it:
- B1 — lower, 58.7%
- B2 — lower, 55.7%
